Measurements: patent publication US20140105926A1 (GlaxoSmithKline, published 2014)

Biological target: T1, Vitronectin from human plasma (SIGMA-ALDRICH) (human, UniProt P04004 20-478)
T1 construct: mature; Bought protein from human plasma. 'mature' is inferred from the plasma origin
Test: ELISA: plate coated with fusion protein (10 ug/ml), human plasma vitronectin titrated from 10 ug/ml, detected with peroxidase sheep anti-human vitronectin

T1 sequence (P04004 20-478): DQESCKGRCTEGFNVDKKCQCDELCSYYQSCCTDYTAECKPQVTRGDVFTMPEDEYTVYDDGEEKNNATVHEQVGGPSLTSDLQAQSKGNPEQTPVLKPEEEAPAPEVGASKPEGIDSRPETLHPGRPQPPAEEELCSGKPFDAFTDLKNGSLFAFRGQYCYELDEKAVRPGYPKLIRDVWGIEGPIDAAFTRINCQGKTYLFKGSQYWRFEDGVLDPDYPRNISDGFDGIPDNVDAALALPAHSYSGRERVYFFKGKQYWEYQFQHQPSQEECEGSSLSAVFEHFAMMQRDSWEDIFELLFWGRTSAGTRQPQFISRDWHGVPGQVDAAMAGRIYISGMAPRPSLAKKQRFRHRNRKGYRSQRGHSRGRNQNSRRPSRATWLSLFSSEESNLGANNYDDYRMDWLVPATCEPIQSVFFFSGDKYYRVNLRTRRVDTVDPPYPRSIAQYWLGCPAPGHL

B1: purified LVL317 PE-PilA fusion protein (other)
chain: QIQKAEQNDVKLAPPTDVRSGYIRLVKNVNYYIDSESIWVDNQEPQIVHFDAVVNLDKGLYVYPEPKRYARSVRQYKILNCANYHLTQVRTDFYDEFWGQGLRAAPKKQKKHTLSLTPDTTLYNAAQIICANYGEAFSVDKKGGTKKAAVSELLQASAPYKADVELCVYSTNETTNCTGGKNGIAADITTAKGYVKSVTTSNGAITVKGDGTLANMEYILQATGNAATGVTWTTTCKGTDASLFPANFCGSVTQ
notes: also called PE-PilA fusion non His-tagged protein
Q: Does B1 bind?
A: binds
